We go through one molecule from patent US20250388684A1 (published 2025).

In assay [1] the target is T1, human CCR8 (C-C chemokine receptor type 8) (human, UniProt P51685 1-355). The experiment in a line: FACS cell binding; Control.
For assay [2], the target named is T1, human CCR8 (C-C chemokine receptor type …). The experiment in a line: FACS cell binding; human plasma 37°C 7 Day.
For assay [3] the target is unchanged. The experiment in a line: FACS cell binding; human plasma 37°C 14 Day.

T1 sequence (P51685 whole entry): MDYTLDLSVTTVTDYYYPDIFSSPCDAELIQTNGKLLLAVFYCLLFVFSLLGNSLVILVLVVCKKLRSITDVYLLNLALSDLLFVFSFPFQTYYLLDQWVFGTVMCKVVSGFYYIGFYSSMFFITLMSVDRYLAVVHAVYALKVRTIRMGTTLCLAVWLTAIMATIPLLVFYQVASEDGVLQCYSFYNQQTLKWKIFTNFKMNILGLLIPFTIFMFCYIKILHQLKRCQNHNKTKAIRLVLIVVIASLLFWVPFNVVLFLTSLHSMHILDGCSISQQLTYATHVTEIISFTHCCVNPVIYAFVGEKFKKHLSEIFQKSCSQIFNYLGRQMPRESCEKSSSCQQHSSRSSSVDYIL

B1: 13F3H6-hz-eADCC (13F3H6-hz with ADCC-enhanced IgG1 Fc) (antibody)
heavy: EVQLVESGGGLVQPGESLRLSCAASGFTFNAYAMNWVRQAPGQGLEWVARIRTKSNNYATYYADSVKGRFTISRDDSKNTLYLEMNSLRAEDTAVYYCVRHKKVREGYAMDYWGQGTLVTVSSASTKGPSVFPLAPSSKSTSGGTAALGCLVKDYFPEPVTVSWNSGALTSGVHTFPAVLQSSGLYSLSSVVTVPSSSLGTQTYICNVNHKPSNTKVDKKVEPKSCDKTHTCPPCPAPELVGGPSVFLLPPKPKDTLMISRTPEVTCVVVDVSHEDPEVKFNWYVDGVEVHNAKTKPPEEQYNSTLRVVSVLTVLHQDWLNGKEYKCKVSNKALPAPIEKTISKAKGQPREPQVYTLPPSREEMTKNQVSLTCLVKGFYPSDIAVEWESNGQPENNYKTTPLVLDSDGSFFLYSKLTVDKSRWQQGNVFSCSVMHEALHNHYTQKSLSLSPGK
light: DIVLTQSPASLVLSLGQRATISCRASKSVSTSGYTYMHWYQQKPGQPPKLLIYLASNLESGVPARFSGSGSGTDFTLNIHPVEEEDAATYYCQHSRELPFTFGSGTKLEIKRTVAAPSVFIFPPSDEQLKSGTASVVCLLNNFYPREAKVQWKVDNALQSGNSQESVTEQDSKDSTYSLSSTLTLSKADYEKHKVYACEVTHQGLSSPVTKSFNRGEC
In the case of B1, the EC50 turned out to be 0.035 µg/mL in assay [1], 0.0425 µg/mL in assay [2] and 0.039 µg/mL in assay [3].

As a reminder, the EC50 is the midpoint of the concentration-response curve.
